Assay [1] concerns the target T1, human C4.4a natively expressed on tumor cell lines (human, UniProt O95274 31-326).
T1 construct: whole, on cells; also called NCI H292; NCI H322
T1 sequence (looked up): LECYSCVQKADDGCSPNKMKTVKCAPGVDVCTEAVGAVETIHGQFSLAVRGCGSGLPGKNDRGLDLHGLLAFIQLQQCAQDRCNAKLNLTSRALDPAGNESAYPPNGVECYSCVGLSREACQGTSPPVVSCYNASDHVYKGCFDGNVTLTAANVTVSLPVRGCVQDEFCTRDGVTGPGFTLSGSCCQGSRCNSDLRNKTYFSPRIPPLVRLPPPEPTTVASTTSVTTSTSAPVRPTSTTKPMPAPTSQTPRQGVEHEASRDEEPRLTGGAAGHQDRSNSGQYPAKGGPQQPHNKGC
The assay can be described thus: FACS titration on BxPC3 cells (native C4.4a), IgG1 format, phycoerythrin-labelled goat anti-human IgG detection. The method, then: (§1) FACS titration was performed in a 96 well microtiter plate, in which serial dilutions of the primary antibody in a volume of 50 W of FACS buffer (3% FCS, in PBS) were mixed with 50 μl of a cell suspension consisting of 2×10^5 cells/ml which had been detached with Cell Dissociation Solution (1×) Non-enzymatic (Sigma), and resuspended in FACS buffer. Incubation was performed at 4° C. for 1 hour with agitation. Cells were pelleted, washed with FACS buffer and resuspended in 100 μl/well of Phycoerythrin labeled goat anti human IgG (Dianova) solution in FACS buffer. Incubation and washing was performed as before. Analysis of cell-bound antibodies was done at the respective detection wavelength using the FACS Array device. EC₅₀ values were determined from fluorescence medians of duplicates using Swift 8.0 software.

A further assay addresses T2, hC4.4a domain S2-Fc-his6 (human, UniProt O95274 138-223).
T2 construct: C-terminal human IgG1 Fc-6×HisTag fusion from HEK293 6E cells; also called S2 Fc-6×HisTag; domain S2 of C4.4a
Description: western blot of purified S2-Fc-6×HisTag fusion. The method, then:
The SDS gel was then blotted to a iblot gel transfer membrane (Invitrogen IB3010-02) using an iBlot device (Invitrogen). The membrane was blocked in DPBS pH 7.4+4% milk powder+0.1% Tween 20 for 16 h at 4° C., followed by three washing steps for 5 min at 20° C. in DPBS pH 7.4+0.1% Tween 20. M31-B01 (5.76 mg/ml) or M20-D02 S-A (3.49 mg/ml) were applied in dilutions of 1/5000 and 1/2000 respectively and incubated for 1.5 h at 20° C., followed by 2× washes in DPBS pH 7.4+0.1% Tween 20. The second antibody (alk. Phosphatase. Conjugate Goat anti human IgG, Fab specific; 109-055-097 Jackson ImmunoResearch) was incubated at a dilution of 1/1000 for 1.5 h at 20° C. Followed by 3 washing steps for 5 min at 20° C. in DPBS pH 7.4+0.1% Tween 20. Staining was performed with Sigma Fast BCIP/NBT/1 tablet in 10 ml water at 20° C. till the bands became visible. Staining reaction was stopped by washing with water.

Assay [2] addresses T3, recombinant soluble murine C4.4a (mouse, UniProt Q91YK8 33-343, limits assumed).
T3 construct: also called mouse C4.4a; mC4.4a
T3 sequence (looked up): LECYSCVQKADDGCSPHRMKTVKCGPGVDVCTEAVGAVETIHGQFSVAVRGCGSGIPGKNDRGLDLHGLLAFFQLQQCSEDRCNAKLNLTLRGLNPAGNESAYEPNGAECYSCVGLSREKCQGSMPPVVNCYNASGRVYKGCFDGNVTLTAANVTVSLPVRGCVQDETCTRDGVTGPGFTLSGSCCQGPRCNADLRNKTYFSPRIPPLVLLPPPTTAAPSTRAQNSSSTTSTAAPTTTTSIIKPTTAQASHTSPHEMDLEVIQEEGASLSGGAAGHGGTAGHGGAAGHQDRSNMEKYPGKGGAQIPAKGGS
Description: ELISA, IgG1 on coated recombinant murine C4.4a. The method, then: FIG. 2 depicts binding curves of anti-C4.4 antibody M31-B01 and M20 D02 S-A on recombinant human C4.4a (A) and murine C4.4a (B) respectively. Briefly, 96-well MTP were coated for 16 h at 4° C. with recombinant human or mouse C4.4a (100 ng/well plates were washed 3 times with PBS/0.05% Tween 20 (=buffer B) treated with blocking reagent (PBS+2% BSA), and washed again 3 times with buffer B. After that anti C4.4a antibodies of the invention were added in concentrations of 0.39 ng to 400 ng/per well and incubated for one hour at 20° C. After washing 3 times with buffer B, 20 ng of Protein A were added in 100 μl buffer B to each well. Color reaction was developed by addition of 50 W 3,3′,5,5′-Tetramethylbenzidine (TMB) (Sigma). Data for EC₅₀ determination were recorded after 18 min by measuring extinction […] a Tecan infinite plate reader. EC₅₀ values for M31-B01 were 0.24 and 0.29 nM on human and murine C4.4a, respectively. And for M20-D02 S-A EC₅₀ values were 0.3 and 0.38 nM on human and murine C4.4a, respectively. This indicates high affinity binding of anti C4.4a antibodies of the invention to both human and murine soluble recombinant C4.4a.
Background: An ELISA detects its analyte on a solid surface through an enzyme-linked reagent.

The target of assay [3] is T4, human C4.4a on transfected A549:hC4.4a cells (human, UniProt O95274 31-326).
T4 construct: full length GPI-anchored form, stably transfected; also called C4.4a:A549
T4 sequence: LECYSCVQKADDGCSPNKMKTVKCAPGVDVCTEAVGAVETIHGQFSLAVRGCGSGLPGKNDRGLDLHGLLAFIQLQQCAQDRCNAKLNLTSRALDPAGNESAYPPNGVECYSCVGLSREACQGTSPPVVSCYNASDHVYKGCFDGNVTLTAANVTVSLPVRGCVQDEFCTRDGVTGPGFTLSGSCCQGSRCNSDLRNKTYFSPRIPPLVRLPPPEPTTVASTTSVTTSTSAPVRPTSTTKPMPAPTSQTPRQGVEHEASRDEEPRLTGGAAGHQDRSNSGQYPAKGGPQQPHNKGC
The assay can be described thus: FACS titration on transfected A549:hC4.4a cells (printed 'A549:C4.4a'), IgG1 format, phycoerythrin-labelled goat anti-human IgG detection. The method, then: as §1

Assay [4] addresses T5, murine C4.4a on transfected CHO-S:mC4.4a cells (mouse, UniProt Q91YK8 33-343).
T5 construct: full length GPI-anchored form, stably transfected; also called Mouse C4.4a:CHO; mC4.4a: CHO
T5 sequence: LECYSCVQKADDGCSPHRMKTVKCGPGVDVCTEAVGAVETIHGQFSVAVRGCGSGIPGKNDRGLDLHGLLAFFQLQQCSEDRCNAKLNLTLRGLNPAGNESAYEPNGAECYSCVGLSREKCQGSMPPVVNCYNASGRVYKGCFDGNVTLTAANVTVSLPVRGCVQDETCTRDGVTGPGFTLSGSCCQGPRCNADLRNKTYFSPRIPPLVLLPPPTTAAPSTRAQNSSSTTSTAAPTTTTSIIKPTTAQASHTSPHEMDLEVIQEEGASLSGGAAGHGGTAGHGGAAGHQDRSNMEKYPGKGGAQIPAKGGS
Description: FACS titration of IgG1 on CHO-S:mC4.4a cells.

The target in assay [5] is T1, human C4.4a natively expressed on tumor …. Description: FACS titration on NCI H322 cells (native C4.4a), IgG1 format, phycoerythrin-labelled goat anti-human IgG detection. The method, then: as §1
For assay [6] the target is unchanged. Description: FACS titration on H1975/BCRP cells (native C4.4a), IgG1 format, phycoerythrin-labelled goat anti-human IgG detection. The method, then:
as §1

B1: M20-D02 S-A (antibody, human IgG1, V domains shown)
VH: EVQLLESGGGLVQPGGSLRLSCAASGFTFSDYQMTWIRQTPGKGLEWVSGVSWNGARTHYADSVKGRFTISRDNSKNTLYLQMNSLRAEDTAVYYCAKGDYLVYSAYYFDSWGQGTLVTVTS
VL: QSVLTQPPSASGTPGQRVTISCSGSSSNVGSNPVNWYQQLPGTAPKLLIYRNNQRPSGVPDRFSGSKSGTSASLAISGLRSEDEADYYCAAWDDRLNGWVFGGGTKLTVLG
notes: tested as human IgG1
One may read the EC50 as the midpoint of the concentration-response curve. As to B1, the EC50 in assay [1] worked out at 1 nM; in assay [2] it was 0.38 nM; in assay [3], 4.3 nM; in assay [4] it was 1.6 nM; in assay [5], 1.2 nM; in assay [6], 1.3 nM. For the same molecule, the binding result in the assay with hC4.4a domain S2-Fc-his6 is “no binding”.

B2: M31-B01 (antibody, human IgG1, V domains shown)
VH: EVQLLESGGGLVQPGGSLRLSCAASGFTFSNAWMSWVRQAPGKGLEWVSYISSSGSTIYYADSVKGRFTISRDNSKNTLYLQMNSLRAEDTAVYYCAREGLWAFDYWGQGTLVTVTS
VL: QSVLTQPPSASGTPGQRVTISCTGSSSNIGAGYVVHWYQQLPGTAPKLLIYDNNKRPSGVPDRFSGSKSGTSASLAISGLRSEDEADYYCAAWDDRLNGPVFGGGTKLTVLG
notes: tested as human IgG1
As to B2, the EC50 is 0.3 nM in assay [1]; 0.29 nM in assay [2]; 1.9 nM in assay [3]; 1.9 nM in assay [4]; 0.3 nM in assay [5]; 0.4 nM in assay [6]. For the same molecule, the binding result with hC4.4a domain S2-Fc-his6 was “no binding”.

Source of the values: US20120321619A1 (Bayer, published 2012).
